In article PMC10577170 (2023):

T1: CSPG4 (chondroitin sulfate proteoglycan 4) peptide on HLA-C*07:01 (human)
T1 peptide: HIIFPHGSL

T2: CSPG4 (chondroitin sulfate proteoglycan 4) peptide on HLA-C*07:02 (human)
T2 peptide: PHIIFPHGSL

T3: CSPG4 (chondroitin sulfate proteoglycan 4) peptide on HLA-C*07:02 (human)
T3 peptide: HIIFPHGSL


Assays:
[1] = molecular target: T1, CSPG4 (chondroitin sulfate proteoglycan …); assay: killing
[2] = molecular target: T2, CSPG4 (chondroitin sulfate proteoglycan …); assay: cytokine release
[3] = molecular target: T3, CSPG4 (chondroitin sulfate proteoglycan …); assay: cytokine release

| binding result [2] | binding result [3] | Binder | binding result [1] |
| --- | --- | --- | --- |
| no recognition | no recognition | 2C/165 TCR (TCR) alpha TRAV35*02 TRAJ34*01 CDR3: CAGSYNTDKLIF beta TRBV3-1*01 TRBJ2-1*01 CDR3: CASSQGWTRNEQFF | recognises |
| no recognition | no recognition | 11C/73 TCR (TCR) alpha TRAV12-2*02 TRAJ45*01 CDR3: CAVNAAGGGADGLTF beta TRBV28*01 TRBJ2-2*01 CDR3: CASSYDWGGELFF | recognises |

Further lines, the binder ahead of its results:

| Binder | binding result [2] | binding result [3] | binding result [1] |
| --- | --- | --- | --- |
| 11Cα-2Cβ cTCR (TCR) alpha TRAV12-2*02 TRAJ45*01 CDR3: CAVNAAGGGADGLTF beta TRBV3-1*01 TRBJ2-1*01 CDR3: CASSQGWTRNEQFF |  |  | no recognition |
| 2Cα-11Cβ cTCR (TCR) alpha TRAV35*02 TRAJ34*01 CDR3: CAGSYNTDKLIF beta TRBV28*01 TRBJ2-2*01 CDR3: CASSYDWGGELFF |  |  | recognises |
